# Source: US20090088402A1 (SUNGKYUNKWAN UNIVERSITY FOUNDATION FOR CORPORATE …, published 2009)
# B1: Msx1 construct lacking homeodomain (1-165) expressed as a fusion protein with LexA (other)
# chain: MTSLPLGVKVEDSAFGKPAGGGAGQAPSAAAATAAAMGADEEGAKPKVSPSLLPFSVEALMADHRKPGAKESALAPSEGVQAAGGSAQPLGVPPGSLGAPDAPSSPRPLGHFSVGGLLKLPEDALVKAESPEKPERTPWMQSPRFSPPPARRLSPPACTLRKHKT
# notes: Yeast two hybrid bait; not shown: LexA as encoded by the pGlida vector (Clontech)
# Target: T1, full length human p53 fused in frame with the B42D activation domain (pJG4-5) (human, UniProt P04637 1-393)
# T1 construct: mature; Yeast two hybrid prey
# Assay: yeast two hybrid, X-gal colony colour
# Excerpt: To determine whether protein-protein interactions are involved, and which part of Msx1 are involved if any, in the stabilization of p53 leading to apoptosis of cells by Msx1, yeast two hybrid assays were used as previously described (Gyuris et al., Cell 75: 791-803, 1993; Part et al., ibid).
# Briefly, to this end, four Msx1 constructs (FIG. 3A top) were made as described in Example 1. DNA fragments encoding full length human HPV-E6 and p53 proteins were isolated by PCR from the cDNA library derived from HeLa cells (Clontech) and cloned into pJG4-5 at unique EcoRI and XhoI sites for in-frame fusion of each cDNA with B42D activation domain. The truncated constructs of Msx1 as shown in FIG. 3A were obtained by PCR using specific set of primers designed for each deletion product and pCB6+/Msx1 as a template. Each amplified Msx1 fragment was then inserted into a pGlida vector (Clontech) using BamHI and XhoI sites to express it as a fusion protein with LexA. Each pGlida and pJG4-5 fusion construct prepared was then introduced into the testing yeast strain EGY48. […] The binding activity between HPV-E6 and Msx1 was also determined quantitatively by the relative expression level of β-galactosidase as described (Rho, S B et al., FEBS Lett 557: 57-63, 2004; Rho, S B et al., PNAS USA 93:10128-33,1996).
binder,measurement,value
B1,binding result,no binding
